These results are taken from patent publication US5959145A, “Fatty acid analog enzyme substrates” (priority 1993, dated 1999).

Series [1] addresses T1, yeast NMT (Saccharomyces cerevisiae, UniProt P14743).
T1 construct: 11,000-fold purified preparation of yeast NMT; endogenous in cells; host or cells: yeast (enzyme purified from yeast, 11,000-fold)
T1 sequence (P14743 1-455): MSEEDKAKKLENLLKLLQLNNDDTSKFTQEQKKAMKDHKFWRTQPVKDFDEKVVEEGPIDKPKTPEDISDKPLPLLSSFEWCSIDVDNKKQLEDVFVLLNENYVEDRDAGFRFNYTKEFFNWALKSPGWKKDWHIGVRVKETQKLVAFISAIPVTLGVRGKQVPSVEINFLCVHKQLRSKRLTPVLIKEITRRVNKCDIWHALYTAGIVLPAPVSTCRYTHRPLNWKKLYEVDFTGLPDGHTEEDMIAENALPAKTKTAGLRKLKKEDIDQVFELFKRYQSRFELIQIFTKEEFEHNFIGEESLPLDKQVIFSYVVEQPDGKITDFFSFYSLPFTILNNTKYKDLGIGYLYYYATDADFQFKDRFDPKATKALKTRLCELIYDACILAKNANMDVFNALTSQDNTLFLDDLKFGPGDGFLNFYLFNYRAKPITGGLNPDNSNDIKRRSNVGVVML
The experiment in a line: kinetic characterisation of fatty acid analogs as yeast NMT substrates. The series is classed as biochemical. An excerpt:
(§1) Similar results were obtained using an 11,000-fold purified preparation of yeast NMT [Towler et al., Proc. Natl. Acad. Sci. USA 84, 2708-2712 (1987)].
(§2) Other illustrative examples of the oxy- and thio-substituted fatty acid analog substrate compounds of the invention were synthesized in Examples 6 to 14 and tested in Example 15 as substrates for the yeast NMT.
(§3) For these Examples, each analog synthesized is characterized by ^1 H and ^13 C NMR as well as mass spectroscopy. The analogs are then characterized kinetically as NMT substrates. Briefly, fatty acid analogs are converted to their CoA esters with Pseudomonas CoA ligase and incubated with the iodinated peptide GNAAS[^125 I]YRR and a source of NMT. […] The radiolabelled peptide is then used at concentrations which will lead to 50% enzyme saturation (i.e., at its Km) for the determination of fatty acid analog kinetic characteristics. Representative analogs with sulfur or oxygen in the backbone of the fatty acid chain serve as good substrates for NMT in vitro and will compete for incorporation of ^3 H labelled myri-state into yeast proteins in vivo. In addition, these analogs differ markedly in hydrophobicity from myri-state as measured both by C18 reverse phase HPLC elution profiles and by 2-octanol/water partition coefficients. The analog CH3 O(CH2)11 COOH, for example, partitions into water 20 fold better than myristate. It is believed that these analogs will be incorporated into mammalian acylproteins in vivo and that their incorporation into these proteins will drastically alter protein processing or targeting. It is further believed that the incorporation of fatty acid analogs of both myristate and palmitate into ester linked and phosphatidyl inositol glycan linked acylproteins will also dramatically alter their properties. Since many viral proteins and oncogenes are acylated, these compounds represent a new class of potential antiviral and antineoplastic agents.

The nature of series [2]: 2-octanol/water partition. The series is classed as physicochemical. The procedure:
as §3, with “It is further believed that the incorporation of fatty acid analogs of both myristate and palmitate into ester linked and phosphatidyl inositol glycan linked acylproteins will also dramatically alter their properties. Since many viral proteins and oncogenes are acylated, these compounds represent a new class of potential antiviral and antineoplastic agents.” left out

The nature of series [3]: C18 reverse phase HPLC elution of fatty acyl peptides (hydrophobicity). As to conditions: C18 reverse phase HPLC, acyl derivative of GNAAS[125I]YRR; Table 2. It counts as physicochemical. The procedure:
The fatty acid analog acyl-peptide eluted 7 minutes earlier than the corresponding myristoyl peptide. The free peptide elutes in the void volume (3-5minutes).
This difference was evident when the HPLC elution characteristics of fatty acyl peptides were examined. The elution time of a particular acyl-peptide depends strongly on the peptide sequence as well as on the acyl chain attached to that peptide. For example, the elution times of fatty acyl derivatives of GNAAAARR are (in minutes) decanoic acid, 9; dodecanoic acid, 18; myristic acid, 24; and palmitic acid, 30. Elution times for fatty acyl derivatives of GNAAS[^125 I]YRR are 23 and 28 minutes for C12 and C14 fatty acids, respectively (FIG. 2). […] Such a change could alter the biological activity of myristoyl proteins.
as §3

A short description of series [4]: growth, toxicity and total protein synthesis in yeast cells. The series is classed as cell-based. The conditions noted are these: s. cerevisiae bj405, vs control cells not exposed to exogenous fatty acid, read-out: reduction in total protein synthesis ([35S]methionine into TCA precipitable protein). Here is the method:
(§4) Saccharomyces cerevisiae strain BJ405 [MATα, trpl, prbl, prcl, pep4-3; Hemmings et al., Proc. Natl. Acad. Sci. USA 78, 435-439 (1981)] (previously referred to as JR153) was grown to mid-log phase (OD660 nm =1.0-1.2) in YPD medium (1% yeast extract/2% Bactopeptone/2% Dextrose) at 30° C. in a rotary shaker water bath. Cells were pretreated with Cerulenin at 2 μg/ml for 15 minutes and then incubated for 20-45 minutes with unlabeled myristate, palmitate or fatty acid analog at 100 μM in the presence of either 5 μM [9,10-^3 H(N)]-myristate (22.4 Ci/mmol) or L-[^35 S]methionine (1106 Ci/mmol) at 30 μCi/ml of culture.
(§5) Cells were cooled on ice 5 minutes, pelleted at 10,000×g, then broken and extracted by the method of Towler et al., Proc. Natl. Acad. Sci. USA 83, 2812-2816 (1986). Total protein synthesis was assayed by trichloroacetic acid (TCA) precipitation. Proteins were separated by SDS-12% polyacrylamide gel electrophoresis, and [^3 H]fatty acid incorporation into cellular acyl-proteins was assayed by autoradiography followed by laser densitometry.

In series [5] the test system is Saccharomyces cerevisiae strain BJ405. The description is as above. The series is classed as cell-based. Here is the method: as §4, §5
Series [6] relates to yeast myristoylprotein of Mr 20 kDa. The experiment in a line: competition for [3H]myristate incorporation into yeast acylprotein in vivo. The series is classed as cell-based. As to conditions: Saccharomyces cerevisiae, 0.75 h; 100 μM unlabeled fatty acid or analog, 5 μM [3H]myristate, vs control cells; read-out: reduction in incorporation of [3H]myristate into yeast myristoylprotein of Mr 20 kDa. Here is the method: as §4, §5

Substrate in series [7]: COCCCCCCCCCCC(=O)O
The experiment in a line: kinetic characterisation of fatty acid analogs as yeast NMT substrates. It counts as biochemical. The conditions noted are these: other: peptide GNAAS[125I]YRR varied, fatty acid analog at 15 μM.
Source text: as §1, §2, §3

Substrate in series [8]: CCCCCCCCSCCCCC(=O)O
The description is as above. The series is classed as biochemical. As to conditions: other: peptide GNAAS[125I]YRR varied, fatty acid analog at 15 μM.
Source text: as §1, §2, §3

Substrate in series [9]: C#CCOCCCCCCCCCC(=O)O
The description is as above. It counts as biochemical. The conditions noted are these: other: peptide GNAAS[125I]YRR varied, fatty acid analog at 15 μM.
Source text: as §1, §2, §3

Substrate in series [10]: CCCCCCCCCCCCCC(=O)O
Described as above. It counts as biochemical. As to conditions: other: peptide GNAAS[125I]YRR varied, fatty acid analog at 15 μM.
Source text: as §1, §2, §3

Substrate in series [11]: CCCOCCCCCCCCCC(=O)O
The description is as above. The series is classed as biochemical. The conditions noted are these: other: peptide GNAAS[125I]YRR varied, fatty acid analog at 15 μM.
Source text: as §1, §2, §3

Substrate in series [12]: CCCCCCCCOCCCCC(=O)O
Described as above. It counts as biochemical. As to conditions: other: peptide GNAAS[125I]YRR varied, fatty acid analog at 15 μM.
Source text: as §1, §2, §3

Substrate in series [13]: CCSCCCCCCCCCCC(=O)O
Described as above. The series is classed as biochemical. The conditions noted are these: other: peptide GNAAS[125I]YRR varied, fatty acid analog at 15 μM.
Source text: as §1, §2, §3

Substrate in series [14]: CCCSCCCCCCCCCC(=O)O
The series is described as above. It counts as biochemical. As to conditions: other: peptide GNAAS[125I]YRR varied, fatty acid analog at 15 μM.
Source text: as §1, §2, §3

Substrate in series [15]: CCCCOCCCCCCCCCCC(=O)O
The series is described as above. The conditions noted are these: other: peptide GNAAS[125I]YRR varied, fatty acid analog at 15 μM. It counts as biochemical.
Source text: as §1, §2, §3

Substrate in series [16]: CCOCCCCCCCCCCC(=O)O
Described as above. It counts as biochemical. As to conditions: other: peptide GNAAS[125I]YRR varied, fatty acid analog at 15 μM.
Source text: as §1, §2, §3

What is called Km is the concentration of substrate that gives half-maximal velocity. As for `COCCCCCCCCCCCC(=O)O` [E, 12-(Methoxy)dodecanoic acid], the “Peptide Vm” value in [1] (peptide GNAAS[125I]YRR varied, fatty acid analog at 15 μM, myristate control = 100%) was determined as 177%. Further, in series [1] (radiolabelled peptide at its Km, analog varied, myristate control = 100%), the “Acyl CoA Vm” value is on record as ~ 110%. For the same molecule, the Km in series [1] (radiolabelled peptide at its Km, analog varied, read-out: Acyl CoA Km) was approximately 2 µM. Besides, the “partition into water relative to myristate” value in series [2] came out at 20 fold. Further, the “Elution Time” value in series [3] was 12 to 13 min. Further, the figures for the inhibition at 100 µM in [4] and in series [6] were 10 to 15% and 35 to 60%, respectively. Moreover, in [5], the “difference in growth rates versus cells treated with 100 μM myristate” value is “No difference”.

B1: yeast NMT (Saccharomyces cerevisiae S288C) (protein)
chain: MSEEDKAKKLENLLKLLQLNNDDTSKFTQEQKKAMKDHKFWRTQPVKDFDEKVVEEGPIDKPKTPEDISDKPLPLLSSFEWCSIDVDNKKQLEDVFVLLNENYVEDRDAGFRFNYTKEFFNWALKSPGWKKDWHIGVRVKETQKLVAFISAIPVTLGVRGKQVPSVEINFLCVHKQLRSKRLTPVLIKEITRRVNKCDIWHALYTAGIVLPAPVSTCRYTHRPLNWKKLYEVDFTGLPDGHTEEDMIAENALPAKTKTAGLRKLKKEDIDQVFELFKRYQSRFELIQIFTKEEFEHNFIGEESLPLDKQVIFSYVVEQPDGKITDFFSFYSLPFTILNNTKYKDLGIGYLYYYATDADFQFKDRFDPKATKALKTRLCELIYDACILAKNANMDVFNALTSQDNTLFLDDLKFGPGDGFLNFYLFNYRAKPITGGLNPDNSNDIKRRSNVGVVML
B1: the Km in [7] was found to be 47.3 µM; in series [8], 11.5 µM; in series [9], 28 µM; in [10], 10 µM; in series [11] it was 34 µM; in series [12] it was 31 µM. Moreover, the Km is 19 µM in series [13], 47 µM in series [14], 42 µM in series [15] and 14.8 µM in [16].
